Data as given in paper PMC8427231, “Mechanism of dimerization and structural features of human LI-cadherin” (The Journal of Biological Chemistry, 2021).

Key:
[1] = molecular target: the molecule itself; assay: SEC-MALS; Superose 12 10/300 GL, 45 μl injected at 100 μM or 50 μM, eluted at about 4 μM; protein conjugate analysis
[2] = molecular target: the molecule itself; assay: AUC; sedimentation velocity (SV-AUC), 20 °C, buffer A (10 mM Hepes-NaOH pH 7.5, 150 mM NaCl, 3 mM CaCl2); EC1-7 at 1-20 μM, EC1-2, EC3-4, EC1-4, EC1-5 at 1-60 μM, EC1-4F224A at 1-120 μM; KD of the monomer-dimer equilibrium (dimer to monomers) from the weight-average sedimentation coefficient, SEDPHAT
[3] = molecular target: T1, human LI-cadherin EC1-5 (human); assay: as above; settings: both partners purified
T1 chain: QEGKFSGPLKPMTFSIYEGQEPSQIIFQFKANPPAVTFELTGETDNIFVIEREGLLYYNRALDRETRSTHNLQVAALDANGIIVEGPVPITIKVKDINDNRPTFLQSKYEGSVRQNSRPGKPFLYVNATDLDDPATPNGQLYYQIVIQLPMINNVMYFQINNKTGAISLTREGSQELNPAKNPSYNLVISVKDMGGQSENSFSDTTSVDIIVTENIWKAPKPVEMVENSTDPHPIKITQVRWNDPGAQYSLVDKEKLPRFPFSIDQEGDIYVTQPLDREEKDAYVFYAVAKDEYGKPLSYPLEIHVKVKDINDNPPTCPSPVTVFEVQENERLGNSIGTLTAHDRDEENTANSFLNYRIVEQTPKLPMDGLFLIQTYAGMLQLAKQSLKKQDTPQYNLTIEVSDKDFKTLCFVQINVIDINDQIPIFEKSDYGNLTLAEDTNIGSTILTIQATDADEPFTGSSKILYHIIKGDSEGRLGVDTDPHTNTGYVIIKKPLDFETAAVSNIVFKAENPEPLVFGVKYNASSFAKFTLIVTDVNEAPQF

Binder | binding result [1] | further results
human LI-cadherin EC1-4 N176A (domain or fragment, human LI-cadherin, extracellular cadherin repeats 1-4, point mutant; Parent: m4; source: Expi293F cells, culture supernatant, purified (Ni-NTA IMAC, SEC)) QEGKFSGPLKPMTFSIYEGQEPSQIIFQFKANPPAVTFELTGETDNIFVIEREGLLYYNRALDRETRSTHNLQVAALDANGIIVEGPVPITIKVKDINDNRPTFLQSKYEGSVRQNSRPGKPFLYVNATDLDDPATPNGQLYYQIVIQLPMINAVMYFQINNKTGAISLTREGSQELNPAKNPSYNLVISVKDMGGQSENSFSDTTSVDIIVTENIWKAPKPVEMVENSTDPHPIKITQVRWNDPGAQYSLVDKEKLPRFPFSIDQEGDIYVTQPLDREEKDAYVFYAVAKDEYGKPLSYPLEIHVKVKDINDNPPTCPSPVTVFEVQENERLGNSIGTLTAHDRDEENTANSFLNYRIVEQTPKLPMDGLFLIQTYAGMLQLAKQSLKKQDTPQYNLTIEVSDKDFKTLCFVQINVID | binds | 
human LI-cadherin EC1-4 N371A (domain or fragment, human LI-cadherin, extracellular cadherin repeats 1-4, point mutant; Parent: m4; source: Expi293F cells, culture supernatant, purified (Ni-NTA IMAC, SEC)) QEGKFSGPLKPMTFSIYEGQEPSQIIFQFKANPPAVTFELTGETDNIFVIEREGLLYYNRALDRETRSTHNLQVAALDANGIIVEGPVPITIKVKDINDNRPTFLQSKYEGSVRQNSRPGKPFLYVNATDLDDPATPNGQLYYQIVIQLPMINNVMYFQINNKTGAISLTREGSQELNPAKNPSYNLVISVKDMGGQSENSFSDTTSVDIIVTENIWKAPKPVEMVENSTDPHPIKITQVRWNDPGAQYSLVDKEKLPRFPFSIDQEGDIYVTQPLDREEKDAYVFYAVAKDEYGKPLSYPLEIHVKVKDINDNPPTCPSPVTVFEVQENERLGNSIGTLTAHDRDEEATANSFLNYRIVEQTPKLPMDGLFLIQTYAGMLQLAKQSLKKQDTPQYNLTIEVSDKDFKTLCFVQINVID | binds | 
human LI-cadherin EC1-4 Q404A (domain or fragment, human LI-cadherin, extracellular cadherin repeats 1-4, point mutant; Parent: m4; source: Expi293F cells, culture supernatant, purified (Ni-NTA IMAC, SEC)) QEGKFSGPLKPMTFSIYEGQEPSQIIFQFKANPPAVTFELTGETDNIFVIEREGLLYYNRALDRETRSTHNLQVAALDANGIIVEGPVPITIKVKDINDNRPTFLQSKYEGSVRQNSRPGKPFLYVNATDLDDPATPNGQLYYQIVIQLPMINNVMYFQINNKTGAISLTREGSQELNPAKNPSYNLVISVKDMGGQSENSFSDTTSVDIIVTENIWKAPKPVEMVENSTDPHPIKITQVRWNDPGAQYSLVDKEKLPRFPFSIDQEGDIYVTQPLDREEKDAYVFYAVAKDEYGKPLSYPLEIHVKVKDINDNPPTCPSPVTVFEVQENERLGNSIGTLTAHDRDEENTANSFLNYRIVEQTPKLPMDGLFLIQTYAGMLALAKQSLKKQDTPQYNLTIEVSDKDFKTLCFVQINVID | binds | 
human LI-cadherin EC1-4 V210A (domain or fragment, human LI-cadherin, extracellular cadherin repeats 1-4, point mutant; Parent: m4; source: Expi293F cells, culture supernatant, purified (Ni-NTA IMAC, SEC)) QEGKFSGPLKPMTFSIYEGQEPSQIIFQFKANPPAVTFELTGETDNIFVIEREGLLYYNRALDRETRSTHNLQVAALDANGIIVEGPVPITIKVKDINDNRPTFLQSKYEGSVRQNSRPGKPFLYVNATDLDDPATPNGQLYYQIVIQLPMINNVMYFQINNKTGAISLTREGSQELNPAKNPSYNLAISVKDMGGQSENSFSDTTSVDIIVTENIWKAPKPVEMVENSTDPHPIKITQVRWNDPGAQYSLVDKEKLPRFPFSIDQEGDIYVTQPLDREEKDAYVFYAVAKDEYGKPLSYPLEIHVKVKDINDNPPTCPSPVTVFEVQENERLGNSIGTLTAHDRDEENTANSFLNYRIVEQTPKLPMDGLFLIQTYAGMLQLAKQSLKKQDTPQYNLTIEVSDKDFKTLCFVQINVID | binds | 
human LI-cadherin EC1-4 Y399A (domain or fragment, human LI-cadherin, extracellular cadherin repeats 1-4, point mutant; Parent: m4; source: Expi293F cells, culture supernatant, purified (Ni-NTA IMAC, SEC)) QEGKFSGPLKPMTFSIYEGQEPSQIIFQFKANPPAVTFELTGETDNIFVIEREGLLYYNRALDRETRSTHNLQVAALDANGIIVEGPVPITIKVKDINDNRPTFLQSKYEGSVRQNSRPGKPFLYVNATDLDDPATPNGQLYYQIVIQLPMINNVMYFQINNKTGAISLTREGSQELNPAKNPSYNLVISVKDMGGQSENSFSDTTSVDIIVTENIWKAPKPVEMVENSTDPHPIKITQVRWNDPGAQYSLVDKEKLPRFPFSIDQEGDIYVTQPLDREEKDAYVFYAVAKDEYGKPLSYPLEIHVKVKDINDNPPTCPSPVTVFEVQENERLGNSIGTLTAHDRDEENTANSFLNYRIVEQTPKLPMDGLFLIQTAAGMLQLAKQSLKKQDTPQYNLTIEVSDKDFKTLCFVQINVID | binds | 
human LI-cadherin EC1-4 L355A (domain or fragment, human LI-cadherin, extracellular cadherin repeats 1-4, point mutant; Parent: m4; source: Expi293F cells, culture supernatant, purified (Ni-NTA IMAC, SEC)) QEGKFSGPLKPMTFSIYEGQEPSQIIFQFKANPPAVTFELTGETDNIFVIEREGLLYYNRALDRETRSTHNLQVAALDANGIIVEGPVPITIKVKDINDNRPTFLQSKYEGSVRQNSRPGKPFLYVNATDLDDPATPNGQLYYQIVIQLPMINNVMYFQINNKTGAISLTREGSQELNPAKNPSYNLVISVKDMGGQSENSFSDTTSVDIIVTENIWKAPKPVEMVENSTDPHPIKITQVRWNDPGAQYSLVDKEKLPRFPFSIDQEGDIYVTQPLDREEKDAYVFYAVAKDEYGKPLSYPLEIHVKVKDINDNPPTCPSPVTVFEVQENERAGNSIGTLTAHDRDEENTANSFLNYRIVEQTPKLPMDGLFLIQTYAGMLQLAKQSLKKQDTPQYNLTIEVSDKDFKTLCFVQINVID | binds | 
human LI-cadherin EC1-4 N222A (domain or fragment, human LI-cadherin, extracellular cadherin repeats 1-4, point mutant; Parent: m4; source: Expi293F cells, culture supernatant, purified (Ni-NTA IMAC, SEC)) QEGKFSGPLKPMTFSIYEGQEPSQIIFQFKANPPAVTFELTGETDNIFVIEREGLLYYNRALDRETRSTHNLQVAALDANGIIVEGPVPITIKVKDINDNRPTFLQSKYEGSVRQNSRPGKPFLYVNATDLDDPATPNGQLYYQIVIQLPMINNVMYFQINNKTGAISLTREGSQELNPAKNPSYNLVISVKDMGGQSEASFSDTTSVDIIVTENIWKAPKPVEMVENSTDPHPIKITQVRWNDPGAQYSLVDKEKLPRFPFSIDQEGDIYVTQPLDREEKDAYVFYAVAKDEYGKPLSYPLEIHVKVKDINDNPPTCPSPVTVFEVQENERLGNSIGTLTAHDRDEENTANSFLNYRIVEQTPKLPMDGLFLIQTYAGMLQLAKQSLKKQDTPQYNLTIEVSDKDFKTLCFVQINVID | binds | 
human LI-cadherin EC1-4 (domain or fragment, N-glycans (four modelled on chain A, two on chain B of the crystal structure; sites not given), human LI-cadherin, extracellular cadherin repeats 1-4; Theoretical mass without glycan 49.8 kDa; also called EC1-4WT; WT; source: Expi293F cells, culture supernatant, purified (Ni-NTA IMAC, SEC)) QEGKFSGPLKPMTFSIYEGQEPSQIIFQFKANPPAVTFELTGETDNIFVIEREGLLYYNRALDRETRSTHNLQVAALDANGIIVEGPVPITIKVKDINDNRPTFLQSKYEGSVRQNSRPGKPFLYVNATDLDDPATPNGQLYYQIVIQLPMINNVMYFQINNKTGAISLTREGSQELNPAKNPSYNLVISVKDMGGQSENSFSDTTSVDIIVTENIWKAPKPVEMVENSTDPHPIKITQVRWNDPGAQYSLVDKEKLPRFPFSIDQEGDIYVTQPLDREEKDAYVFYAVAKDEYGKPLSYPLEIHVKVKDINDNPPTCPSPVTVFEVQENERLGNSIGTLTAHDRDEENTANSFLNYRIVEQTPKLPMDGLFLIQTYAGMLQLAKQSLKKQDTPQYNLTIEVSDKDFKTLCFVQINVID |  | Kd [2]: 39.8 µM; stoichiometry N [2]: 2
human LI-cadherin EC1-5 (domain or fragment, N-glycosylated (Expi293F), Ca2+-bound; limits by convention: mature N-terminus as in PDB 7CYM (EC1-4), end of the UniProt Cadherin 5 domain; His tag omitted; homodimerizes / N-glycosylated …) QEGKFSGPLKPMTFSIYEGQEPSQIIFQFKANPPAVTFELTGETDNIFVIEREGLLYYNRALDRETRSTHNLQVAALDANGIIVEGPVPITIKVKDINDNRPTFLQSKYEGSVRQNSRPGKPFLYVNATDLDDPATPNGQLYYQIVIQLPMINNVMYFQINNKTGAISLTREGSQELNPAKNPSYNLVISVKDMGGQSENSFSDTTSVDIIVTENIWKAPKPVEMVENSTDPHPIKITQVRWNDPGAQYSLVDKEKLPRFPFSIDQEGDIYVTQPLDREEKDAYVFYAVAKDEYGKPLSYPLEIHVKVKDINDNPPTCPSPVTVFEVQENERLGNSIGTLTAHDRDEENTANSFLNYRIVEQTPKLPMDGLFLIQTYAGMLQLAKQSLKKQDTPQYNLTIEVSDKDFKTLCFVQINVIDINDQIPIFEKSDYGNLTLAEDTNIGSTILTIQATDADEPFTGSSKILYHIIKGDSEGRLGVDTDPHTNTGYVIIKKPLDFETAAVSNIVFKAENPEPLVFGVKYNASSFAKFTLIVTDVNEAPQF |  | Kd [3]: 22.8 µM; stoichiometry N [3]: 2
human LI-cadherin EC1-2 (domain or fragment, human LI-cadherin, extracellular cadherin repeats 1-2; source: Expi293F cells, culture supernatant, purified (Ni-NTA IMAC, SEC)) GPLKPMTFSIYEGQEPSQIIFQFKANPPAVTFELTGETDNIFVIEREGLLYYNRALDRETRSTHNLQVAALDANGIIVEGPVPITIKVKDINDNRPTFLQSKYEGSVRQNSRPGKPFLYVNATDLDDPATPNGQLYYQIVIQLPMINNVMYFQINNKTGAISLTREGSQELNPAKNPSYNLVISVKDMGGQSENSFSDTTSVDIIVTE |  | Kd [2]: 75 µM; stoichiometry N [2]: 2
